Results reported in IntAct's records for PubMed 31515488.

B1: PDZ and LIM domain protein 1 (Homo sapiens), O00151 (parent)
chain: MTTQQIDLQGPGPWGFRLVGGKDFEQPLAISRVTPGSKAALANLCIGDVITAIDGENTSNMTHLEAQNRIKGCTDNLTLTVARSEHKVWSPLVTEEGKRHPYKMNLASEPQEVLHIGSAHNRSAMPFTASPASSTTARVITNQYNNPAGLYSSENISNFNNALESKTAASGVEANSRPLDHAQPPSSLVIDKESEVYKMLQEKQELNEPPKQSTSFLVLQEILESEEKGDPNKPSGFRSVKAPVTKVAASIGNAQKLPMCDKCGTGIVGVFVKLRDRHRHPECYVCTDCGTNLKQKGHFFVEDQIYCEKHARERVTPPEGYEVVTVFPK
B2: Splicing factor 45 (Homo sapiens), Q96I25 (parent)
chain: MSLYDDLGVETSDSKTEGWSKNFKLLQSQLQVKKAALTQAKSQRTKQSTVLAPVIDLKRGGSSDDRQIVDTPPHVAAGLKDPVPSGFSAGEVLIPLADEYDPMFPNDYEKVVKRQREERQRQRELERQKEIEEREKRRKDRHEASGFARRPDPDSDEDEDYERERRKRSMGGAAIAPPTSLVEKDKELPRDFPYEEDSRPRSQSSKAAIPPPVYEEQDRPRSPTGPSNSFLANMGGTVAHKIMQKYGFREGQGLGKHEQGLSTALSVEKTSKRGGKIIVGDATEKDASKKSDSNPLTEILKCPTKVVLLRNMVGAGEVDEDLEVETKEECEKYGKVGKCVIFEIPGAPDDEAVRIFLEFERVESAIKAVVDLNGRYFGGRVVKACFYNLDKFRVLDLAEQV
partner: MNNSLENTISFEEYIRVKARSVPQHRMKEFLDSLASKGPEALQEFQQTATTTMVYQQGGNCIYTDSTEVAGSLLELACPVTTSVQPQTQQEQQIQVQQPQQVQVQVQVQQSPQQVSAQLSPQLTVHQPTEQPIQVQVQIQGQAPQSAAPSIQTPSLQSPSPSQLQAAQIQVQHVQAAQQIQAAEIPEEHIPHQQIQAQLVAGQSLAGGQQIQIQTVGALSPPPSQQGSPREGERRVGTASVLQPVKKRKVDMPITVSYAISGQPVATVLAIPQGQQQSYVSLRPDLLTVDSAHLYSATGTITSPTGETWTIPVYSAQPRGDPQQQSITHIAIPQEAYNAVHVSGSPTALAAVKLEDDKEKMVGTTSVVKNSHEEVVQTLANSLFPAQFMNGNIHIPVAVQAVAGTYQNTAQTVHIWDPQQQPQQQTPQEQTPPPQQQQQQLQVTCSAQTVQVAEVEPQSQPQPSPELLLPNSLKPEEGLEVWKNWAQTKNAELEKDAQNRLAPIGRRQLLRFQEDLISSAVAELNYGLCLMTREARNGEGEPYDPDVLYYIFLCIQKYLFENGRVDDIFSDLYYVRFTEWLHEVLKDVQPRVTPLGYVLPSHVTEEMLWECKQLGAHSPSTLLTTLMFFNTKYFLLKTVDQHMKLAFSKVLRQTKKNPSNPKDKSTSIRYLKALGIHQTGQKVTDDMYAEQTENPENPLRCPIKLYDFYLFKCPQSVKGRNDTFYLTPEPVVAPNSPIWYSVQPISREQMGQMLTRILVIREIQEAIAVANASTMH
B3: Protein DBF4 homolog B (Homo sapiens), Q8NFT6 (parent)
chain: MSEPGKGDDCLELESSMAESRLRAPDLGVSRCLGKCQKNSPGARKHPFSGKSFYLDLPAGKNLQFLTGAIQQLGGVIEGFLSKEVSYIVSSRREVKAESSGKSHRGCPSPSPSEVRVETSAMVDPKGSHPRPSRKPVDSVPLSRGKELLQKAIRNQGSISGGGSGGSSSLLTNARSWGVRILHVDEMMMHVQQLSLASLCVKKQQPKKPEGTCPAAESRTRKVARLKAPFLKIEDESRKFRPFHHQFKSFPEISFLGPKDASPFEAPTTLGSMHHTRESKDGEPSPRSAAHTMPRRKKGYCECCQEAFEELHVHLQSAQHRSFALEAHLYAEVDRIIAQLSHSFADIPFQAGLPRWSGSPASDCDPLCPETLHPHQPSHPRAASPRIRKEDSCQASVTQGRAAGQQRWTESLDGVMGPPASHTCVSATTLLPALPKGSREQGCLCPCPASFTQSHLVTSLALLPGEWSPAEDMPLHPSQENSFAPADIPVKGPLLFPEARPWLMSARCWVRPFPFVTWGCLIPHDTTPLHEEVSPCPCLRLGYLYLLLTQSLWCRVRVPSLSTAGPIPRTSHPCTLAFPSYLNDHDLGHLCQAKPQGWNTPQPFLHCGFLAVDSG
B4: Copper homeostasis protein cutC homolog (Homo sapiens), Q9NTM9 (parent)
chain: MKRQGASSERKRARIPSGKAGAANGFLMEVCVDSVESAVNAERGGADRIELCSGLSEGGTTPSMGVLQVVKQSVQIPVFVMIRPRGGDFLYSDREIEVMKADIRLAKLYGADGLVFGALTEDGHIDKELCMSLMAICRPLPVTFHRAFDMVHDPMAALETLLTLGFERVLTSGCDSSALEGLPLIKRLIEQAKGRIVVMPGGGITDRNLQRILEGSGATEFHCSARSTRDSGMKFRNSSVAMGASLSCSEYSLKVTDVTKVRTLNAIAKNILV
partner: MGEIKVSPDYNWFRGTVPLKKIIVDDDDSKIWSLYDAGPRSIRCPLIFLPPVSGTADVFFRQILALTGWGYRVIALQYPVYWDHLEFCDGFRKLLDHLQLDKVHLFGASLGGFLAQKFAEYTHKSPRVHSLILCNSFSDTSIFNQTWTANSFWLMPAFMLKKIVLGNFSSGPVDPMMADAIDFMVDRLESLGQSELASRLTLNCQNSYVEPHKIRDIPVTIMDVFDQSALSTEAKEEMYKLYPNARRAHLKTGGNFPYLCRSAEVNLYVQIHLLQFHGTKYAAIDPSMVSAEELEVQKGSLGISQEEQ
B5: Lebercilin-like protein (Homo sapiens), O95447 (parent)
chain: MSLADLTKTNIDEHFFGVALENNRRSAACKRSPGTGDFSRNSNASNKSVDYSRSQCSCGSLSSQYDYSEDFLCDCSEKAINRNYLKQPVVKEKEKKKYNVSKISQSKGQKEISVEKKHTWNASLFNSQIHMIAQRRDAMAHRILSARLHKIKGLKNELADMHHKLEAILTENQFLKQLQLRHLKAIGKYENSQNNLPQIMAKHQNEVKNLRQLLRKSQEKERTLSRKLRETDSQLLKTKDILQALQKLSEDKNLAEREELTHKLSIITTKMDANDKKIQSLEKQLRLNCRAFSRQLAIETRKTLAAQTATKTLQVEVKHLQQKLKEKDRELEIKNIYSHRILKNLHDTEDYPKVSSTKSVQADRKILPFTSMRHQGTQKSDVPPLTTKGKKATGNIDHKEKSTEINHEIPHCVNKLPKQEDSKRKYEDLSGEEKHLEVQILLENTGRQKDKKEDQEKKNIFVKEEQELPPKIIEVIHPERESNQEDVLVREKFKRSMQRNGVDDTLGKGTAPYTKGPLRQRRHYSFTEATENLHHGLPASGGPANAGNMRYSHSTGKHLSNREEMELEHSDSGYEPSFGKSSRIKVKDTTFRDKKSSLMEELFGSGYVLKTDQSSPGVAKGSEEPLQSKESHPLPPSQASTSHAFGDSKVTVVNSIKPSSPTEGKRKIII
B6: Copper homeostasis protein cutC homolog (Homo sapiens), Q9NTM9 (parent)
chain: B4 chain
B7: Vacuolar protein sorting-associated protein 37B (Homo sapiens), Q9H9H4 (parent)
chain: MAGAGSEARFAGLSLVQLNELLEDEGQLTEMVQKMEETQNVQLNKEMTLASNRSLAEGNLLYQPQLDTLKARLTQKYQELQVLFEAYQIKKTKLDRQSSSASLETLLALLQAEGAKIEEDTENMAEKFLDGELPLDSFIDVYQSKRKLAHMRRVKIEKLQEMVLKGQRLPQALAPLPPRLPELAPTAPLPYPAPEASGPPAVAPRRIPPPPPPVPAGRLATPFTAAMSSGQAVPYPGLQCPPLPPRVGLPTQQGFSSQFVSPYPPPLPQRPPPRLPPHQPGFILQ
B8: Isoform Long of Autophagy protein 5 (Homo sapiens), Q9H1Y0-1 (parent)
chain: MTDDKDVLRDVWFGRIPTCFTLYQDEITEREAEPYYLLLPRVSYLTLVTDKVKKHFQKVMRQEDISEIWFEYEGTPLKWHYPIGLLFDLLASSSALPWNITVHFKSFPEKDLLHCPSKDAIEAHFMSCMKEADALKHKSQVINEMQKKDHKQLWMGLQNDRFDQFWAINRKLMEYPAEENGFRYIPFRIYQTTTERPFIQKLFRPVAADGQLHTLGDLLKEVCPSAIDPEDGEKKNQVMIHGIEPMLETPLQWLSEHLSYPDNFLHISIIPQPTD
B9: Adenylate kinase 8 (Homo sapiens), Q96MA6 (parent)
chain: MDATIAPHRIPPEMPQYGEENHIFELMQNMLEQLLIHQPEDPIPFMIQHLHRDNDNVPRIVILGPPASGKTTIAMWLCKHLNSSLLTLENLILNEFSYTATEARRLYLQRKTVPSALLVQLIQERLAEEDCIKQGWILDGIPETREQALRIQTLGITPRHVIVLSAPDTVLIERNLGKRIDPQTGEIYHTTFDWPPESEIQNRLMVPEDISELETAQKLLEYHRNIVRVIPSYPKILKVISADQPCVDVFYQALTYVQSNHRTNAPFTPRVLLLGPVGSGKSLQAALLAQKYRLVNVCCGQLLKEAVADRTTFGELIQPFFEKEMAVPDSLLMKVLSQRLDQQDCIQKGWVLHGVPRDLDQAHLLNRLGYNPNRVFFLNVPFDSIMERLTLRRIDPVTGERYHLMYKPPPTMEIQARLLQNPKDAEEQVKLKMDLFYRNSADLEQLYGSAITLNGDQDPYTVFEYIESGIINPLPKKIP

Variants of: B1
Conditions: with gfap_human GFAP

Variant	effect of a mutation on the interaction
N175S	with no effect

Variants of: B2
Conditions: with qric1_human QRICH1, Q2TAL8

Variant	effect of a mutation on the interaction
T224I	with no effect

Variants of: B3
Conditions: with tri23_human TRIM23, P36406

Variant	effect of a mutation on the interaction
L199S	disrupting interaction strength

Variants of: B4
Conditions: with spg21_human SPG21, Q9NZD8

Variant	effect of a mutation on the interaction
P77L	disrupting interaction strength

Variants of: B5
Conditions: with tfp11_human TFIP11, Q9UBB9

Variant	effect of a mutation on the interaction
G17S	with no effect

Variants of: B5
Conditions: with tpm3_human TPM3, P06753

Variant	effect of a mutation on the interaction
G17S	with no effect

Variants of: B6
Conditions: with lnx1_human LNX1, Q8TBB1

Variant	effect of a mutation on the interaction
P77L	disrupting interaction strength

Variants of: B7
Conditions: with vps28_human VPS28, Q9UK41

Variant	effect of a mutation on the interaction
M151I	with no effect

Variants of: B8
Conditions: with tera_human VCP

Variant	effect of a mutation on the interaction
K58M	disrupting interaction strength

Variants of: B8
Conditions: with keap1_human KEAP1, Q14145

Variant	effect of a mutation on the interaction
K58M	with no effect

Variants of: B9
Conditions: with mcm7_human MCM7, P33993

Variant	effect of a mutation on the interaction
T169K	with no effect
